Test results published in patent US20190282673A1, “STAPHTAME ACTIVITY ON BIOFILMS” (priority 2016, published 2019).
Several values for one entry are separate records, joined by “and”; a condition that tells them apart may be missing. Equal values may be shown once.

Key:
S. aureus biofilms = test: MBIC and checkerboard synergy on preformed biofilm (MTT assay); assay type: cell-based, Staphylococcus aureus; conditions: for MIC (drug alone) on biofilm: S. aureus MW2 72 h preformed biofilm, 6 hr treatment; for Activity on biofilms: S. aureus MW2 biofilm, drug alone
Method: […] LB supplemented with 50 μg/mL CaCl2 was used for daptomycin treatment wells. The contents of the well was aspirated out and discarded. The biofilm adhered to the wells was quantified by MTT assay as described above. The MBIC was defined as the minimum concentration of P128 or the drug showing no colour development. […] In each experiment, in addition to the combination MBIC, the MBIC of each drug was also determined individually. The fractional MBIC concentrations were determined by MTT dye method as described above. The FICI and synergy was also calculated in a similar manner.
The ability of P128 to inhibit growth of S. aureus in a preformed biofilm was measured by determining minimum biofilm inhibition concentration (MBIC), defined as minimum concentration showing growth inhibition in a MTT based assay. […] 11:226.
The assay was optimized using the standard S. aureus strain ATCC 29213. An overnight-grown culture of the strain was diluted 1:40 in LB broth 200 μL of diluted culture was aliquoted into microtiter plate wells. Microplates were placed in a shaker-incubator set to 37° C., and 100 rpm for 24 h followed by 48 h incubation under static conditions at 37° C. The contents of one set of four wells were aspirated and discarded. Wells were washed twice with 1×PBS and the presence of biofilm in the wells at the end of this 72-hour period was determined by metabolic dye-reduction assay method using MTT (3-(4, 5-dimethylthiazol-5-diphenyltetrazolium bromide; Himedia). In this assay, live cells reduce the dye leading to color formation which can be read at 570 nm, and the intensity of color can be correlated to number of live cells. 100 μL of PBS was added to the wells along with 10 μL of MTT solution. The plate was incubated for 2 h in the dark. After this, 110 μL of solvent solution solubilizing agent was added and the plate was incubated for 15 minutes at ambient temperature with gentle agitation. The absorbance was read at 570 nm in a microplate reader. Another set of four wells was processed for harvesting the biofilm and determination of CFUs present by plating on solid media. For biofilm inhibitory studies, the wells were washed twice with 1×PBS and challenged with various concentrations of P128 or other antibiotic drugs and incubated for 24 h at 37° C. The contents of the well was aspirated out and discarded. The biofilm adhered to the wells was quantified by MTT assay as described above. The MBIC was defined as the minimum concentration of P128 or the drug showing no colour development. […] In each experiment, in addition to the combination MBIC, the MBIC of each drug was also determined individually. The fractional MBIC concentrations were determined by MTT dye method as described above. The FICI and synergy was also calculated in a similar manner.
In order to determine whether P128 could synergize with known anti-Staphylococcus drugs to inhibit S. aureus in biofilms. […] The assays were performed in a 96 well checkerboard format using various concentrations of P128 and one of the antibiotics.

S. aureus USA300 = test: Mouse model of S. aureus with mucin-enhanced virulence, survival; assay type: in vivo, BALB/c mice; conditions: S. aureus USA300 10^9 CFU ip, P128 […] ip, Vancomycin 27.5 mg/kg sc 2 doses, or both
Method: Eight to nine weeks old female BALB/c mice were challenged intraperitoneally with 10^9 CFU of S. aureus USA300. At 2 hours post-infection, animals were treated with either P128 at 2.5 mg/kg intraperitoneally, or vancomycin at 27.5 mg/kg subcutaneously, or combination of both. Groups treated with only vancomycin or combination of P128 and vancomycin were administered with a second dose of vancomycin at 12 hours after the first treatment. At 72 hours post-infection, P128 and vancomycin yielded 56 and 44% survival, respectively.

[1] = system: S. aureus MW2 biofilms on catheters; test: Preformed biofilms on catheters, safranin staining and SEM; assay type: cell-based, Staphylococcus aureus; conditions: 18 hrs; P128 8 μg/mL (1×MIC); vancomycin 90 μg/mL (90×MIC); daptomycin 10 μg/mL (10×MIC)
Method: To study the efficacy of P128 on biofilms on catheters, an overnight-grown culture of S. aureus MW2 was diluted 1:40 in TSB containing 5% rabbit plasma. Catheter (JMS Infusion set) pieces of 1-2 cm size were cut, slit into two halves and added to the culture. The cultures with catheter pieces were incubated at 37° C. with shaking at 100 rpm for 24 h. Post incubation, the catheters were removed and rinsed twice in PBS to remove the adhering planktonic cells. The biofilms on catheters were challenged with 8, 4, 2 and 1 μg/mL of P128 or 15, 30 and 90 μg/mL of vancomycin or 10 μg/mL of daptomycin (with 50 μg/mL CaCl2) by transferring the catheter pieces into tubes containing the drugs. The tubes were incubated at 37° C. under static conditions for 18 hrs. The catheters were then removed from the tubes, rinsed once in PBS, and immersed in 0.1% safranin for 5 min. The stained catheters were washed once in PBS and allowed to dry. After drying, samples were fixed on aluminum stubs with double sided carbon adhesive tape, coated with 5-7 nm thickness gold using a sputter-coating system (Quorum Technologies; Q150T) and examined by SEM (Carl Zeiss; Neon 40) for the presence of biofilm structures.

[2] = system: MRSA MW2 biofilm on catheter; test: In vivo biofilm on catheter implanted subcutaneously in neutropenic mice
Method: Eight-nine week old female BALB/c mice 25 g were rendered neutropenic with cyclophosphamide and were operated under ketamine-xylazine anesthesia. A 1-cm incision was made in the dorsal neck surface by aseptic technique and subcutaneous pouch was created. Catheter segments of 1 cm length pre-incubated with MRSA MW2 suspension (6×10^3 CFUs/mL) for 4 hrs, were placed in the subcutaneous space and the wounds were closed with suture thereafter. As uninfected control, one group of mice were surgically operated and a sterile catheter segment was placed in the cavity. At 24 hours post-catheter implantation, mice were treated with P128 (800 μg per animal, subcutaneously) or with the placebo (saline). Treatments were given thrice a day at 2 hr intervals for three days and 1 hr after the last treatment, the catheters were removed, biofilms were harvested and CFUs recovered were plated on culture media and enumerated. Catheters from a subset of animals were stained with 0.1% safranin, (which stains the bacteria) for 5 min.
For evaluation of synergy with daptomycin, mouse model of biofilm described above was used with few modifications. Eight-nine week old female BALB/c mice 25 g were rendered neutropenic with cyclophosphamide and were operated under ketamine-xylazine anesthesia. A 1-cm incision was made in the dorsal neck surface by aseptic technique and subcutaneous pouch was created. Catheter segments measuring 1 cm were placed in the subcutaneous space, and the wounds closed with suture. At 72 hours post-implantation. MRSA MW2 bacterial inoculum (2.1×10^7 CFU per animal) was injected subcutaneously onto the catheter. At 24 hrs post-challenge, animals were treated with either P128 (800 μg per animal, subcutaneous), or daptomycin (12.5 mg/kg, subcutaneous) or a combination of both. Daptomycin was given once every day for three days whereas P128 was administered thrice a day at 2 hr interval for three days. 1 hr after the last treatment, animals were euthanized and catheters were collected and recovered CFUs were enumerated.
Biofilms were also visualized by staining the catheters with 0.1% safranin.

[3] = Table 4, S. aureus ATCC 29213 preformed biofilm, 6 h
[4] = Table 4, S. aureus ATCC 29213 preformed biofilm, 24 h
[5] = Table 4, S. aureus B9241 preformed biofilm, 6 h
[6] = Table 4, S. aureus B9241 preformed biofilm, 24 h
[7] = Table 4, S. aureus BK1 preformed biofilm, 6 h
[8] = Table 4, S. aureus BK1 preformed biofilm, 24 h
[9] = Table VB2: Daptomycin 12.5 mg/kg sc 1 dose per day for 3 days, P128 800 μg per dose sc 3 doses/day for 3 days, or both
[10] = P128 800 μg per animal sc, thrice a day for three days
[11] = Table VB1: pre-colonised catheter, P128 800 μg per dose sc, 3 doses/day for 3 days

## CN[C@H](CC(C)C)C(=O)N[C@H]1C(=O)N[C@@H](CC(N)=O)C(=O)N[C@H]2C(=O)N[C@H]3C(=O)N[C@H](C(=O)N[C@H](C(=O)O)c4cc(O)cc(O)c4-c4cc3ccc4O)[C@H](O)c3ccc(c(Cl)c3)Oc3cc2cc(c3O[C@@H]2O[C@H](CO)[C@@H](O)[C@H](O)[C@H]2O[C@H]2C[C@](C)(N)[C@H](O)[C@H](C)O2)Oc2ccc(cc2Cl)[C@H]1O [Vancomycin, vancomycin]
S. aureus biofilms
  MIC (drug alone) on biofilm: 250 µg/mL
  Activity on biofilms: poorly effective
S. aureus biofilms; [3]
  MBIC (individual): 7.8 µg/mL
S. aureus biofilms; [4]
  MBIC (individual): 218.75 µg/mL
S. aureus biofilms; [5]
  MBIC (individual): 31.25 µg/mL
S. aureus biofilms; [6]
  MBIC (individual): 125 µg/mL
S. aureus biofilms; [7]
  MBIC (individual): 31.25 µg/mL
S. aureus biofilms; [8]
  MBIC (individual): 250 µg/mL
S. aureus USA300
  Survival at 72 h post infection: 43%
S. aureus USA300; listed as vancomycin
  Survival at 72 h post infection: 44%
[1]
  Effect on catheter biofilm (safranin/SEM): minimal effect

## CCCCCCCCCC(=O)N[C@@H](Cc1c[nH]c2ccccc12)C(=O)N[C@H](CC(N)=O)C(=O)N[C@@H](CC(=O)O)C(=O)N[C@@H]1C(=O)NCC(=O)N[C@@H](CCCN)C(=O)N[C@@H](CC(=O)O)C(=O)N[C@H](C)C(=O)N[C@@H](CC(=O)O)C(=O)NCC(=O)N[C@H](CO)C(=O)N[C@@H]([C@H](C)CC(=O)O)C(=O)N[C@@H](CC(=O)c2ccccc2N)C(=O)O[C@@H]1C [Daptomycin, daptomycin]
S. aureus biofilms
  MIC (drug alone) on biofilm: 31.2 µg/mL
  Activity on biofilms: relatively better activity
[2]; [9]
  CFU recovered from catheter biofilm, individual animals: 4.9 CFU (Log10)/ml and 2.6 CFU (Log10)/ml and 3.0 CFU (Log10)/ml and 2.7 CFU (Log10)/ml
[1]
  Effect on catheter biofilm (safranin/SEM): significant reduction in biofilm mass

## CC(=O)NC[C@H]1CN(c2ccc(N3CCOCC3)c(F)c2)C(=O)O1 [Linezolid, linezolid]
S. aureus biofilms
  MIC (drug alone) on biofilm: >500 µg/mL
  Activity on biofilms: poorly effective

B1: P128: anti-staphylococcal chimeric protein: phage tail associated muralytic enzyme (TAME) cell wall-degrading region plus staphylococcus-specific binding region; SEQ ID NO: 1 (protein)
chain: MSLDSLKKYNGKLPKHDPSFVQPGNRHYKYQCTWYAYNRRGQLGIPVPLWGDAADWIGGAKGAGYGVGRTPKQGACVIWQRGVQGGSPQYGHVAFVEKVLDGGKKIFISEHNYATPNGYGTRTIDMSSAIGKNAQFIYDKKLETPNTGWKTNKYGTLYKSESASFTPNTDIITRTTGPFRSMPQSGVLKAGQTIHYDEVMKQDGHVWVGYTGNSGQRIYLPVRTWNKSTNTLGVLWGTIK
modifications: P128 chimera
S. aureus biofilms; 2 h assay, sensitive and resistant strains of S. aureus
  MBIC fold higher than planktonic MIC: 1-4 fold
S. aureus biofilms; S. aureus 8325-4 biofilm, 2 h
  MBIC: 7.8 µg/mL
S. aureus biofilms; S. aureus 8325-4 biofilm, 4 h
  MBIC: 15.6 µg/mL
S. aureus biofilms; S. aureus 8325-4 biofilm, 6 h
  MBIC: 15.6 µg/mL
S. aureus biofilms; S. aureus 8325-4 biofilm, 8 h
  MBIC: 31.25 µg/mL
S. aureus biofilms; S. aureus 8325-4 biofilm, 24 h
  MBIC: 1000 µg/mL
S. aureus biofilms; S. aureus ATCC 29213 biofilm, 2 h
  MBIC: 3.9 µg/mL
S. aureus biofilms; S. aureus ATCC 29213 biofilm, 4 h
  MBIC: 15.6 µg/mL
S. aureus biofilms; S. aureus ATCC 29213 biofilm, 6 h
  MBIC: 15.6 µg/mL
S. aureus biofilms; S. aureus ATCC 29213 biofilm, 8 h
  MBIC: 15.6 µg/mL
S. aureus biofilms; S. aureus ATCC 29213 biofilm, 24 h
  MBIC: 250 µg/mL
S. aureus biofilms; S. aureus B9241 biofilm, 2 h
  MBIC: 15.6 µg/mL
S. aureus biofilms; S. aureus B9241 biofilm, 4 h
  MBIC: 125 µg/mL
S. aureus biofilms; S. aureus B9241 biofilm, 6 h
  MBIC: 125 µg/mL
S. aureus biofilms; S. aureus B9241 biofilm, 8 h
  MBIC: 125 µg/mL
S. aureus biofilms; S. aureus B9241 biofilm, 24 h
  MBIC: >1000 µg/mL
S. aureus biofilms; S. aureus B9356 biofilm, 2 h
  MBIC: 7.8 µg/mL
S. aureus biofilms; S. aureus B9356 biofilm, 4 h
  MBIC: 15.6 µg/mL
S. aureus biofilms; S. aureus B9356 biofilm, 6 h
  MBIC: 31.25 µg/mL
S. aureus biofilms; S. aureus B9356 biofilm, 8 h
  MBIC: 62 µg/mL
S. aureus biofilms; S. aureus B9356 biofilm, 24 h
  MBIC: >1000 µg/mL
S. aureus biofilms; S. aureus BK1 biofilm, 2 h
  MBIC: 15.6 µg/mL
S. aureus biofilms; S. aureus BK1 biofilm, 4 h
  MBIC: 31.25 µg/mL
S. aureus biofilms; S. aureus BK1 biofilm, 6 h
  MBIC: 31.25 µg/mL
S. aureus biofilms; S. aureus BK1 biofilm, 8 h
  MBIC: 31.25 µg/mL
S. aureus biofilms; S. aureus BK1 biofilm, 24 h
  MBIC: 1000 µg/mL
S. aureus biofilms
  MIC (drug alone) on biofilm: 6.25 µg/mL
S. aureus biofilms; [3]
  MBIC (individual): 6.04 µg/mL
S. aureus biofilms; [4]
  MBIC (individual): 200 µg/mL
S. aureus biofilms; [5]
  MBIC (individual): 105.15 µg/mL
S. aureus biofilms; [6]
  MBIC (individual): >1000 µg/mL
S. aureus biofilms; [7]
  MBIC (individual): 28.95 µg/mL
S. aureus biofilms; [8]
  MBIC (individual): 400 µg/mL
[2]; [10]
  Reduction in CFUs compared to the control group: greater than 1 log
  Safranin staining of catheters: eradication of biofilm
[2]; [11]
  Avg. CFU recovered from catheter biofilm: 2.8 CFU Log(10)/ml
  CFU recovered from catheter biofilm, individual animals: 4.15 CFU (Log10)/ml and 3.12 CFU (Log10)/ml and 1.00 CFU (Log10)/ml and Nil
[2]; [9]
  CFU recovered from catheter biofilm, individual animals: 2.5 CFU (Log10)/ml and 2.0 CFU (Log10)/ml and 2.7 CFU (Log10)/ml
S. aureus USA300
  Survival at 72 h post infection: 56%
[1]
  Effect on catheter biofilm (safranin/SEM): eradication of the biofilm
